Assay results as given in US20090117111A1.

Molecular target: FcγRIIIa on NK cells of V/F donors (both aa158 allotypes, V and F) (human)
Test: cell-based or functional assay

Substance	ED50 for lysis of the Daudi cell line (ADCC, purified NK cells, V/F donors)
monoclonal antibody CHIR-12.12	0.002 nM
rituximab (Rituxan) (antibody)	0.021 nM
